According to the supplement of paper PMC9170038:

System: K4 kissing-loop RNA reporter
Experiment: apparent KD of K4 kissing-loop reporter; higher = weaker reporter binding
Conditions: Eterna round: R107
Protocol: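 RNA-MaP round R107: designed RNA switches with theophylline, tryptophan, arginine or FMN aptamers are transcribed on-chip within common flanks. They are titrated with a labelled K4 kissing-loop RNA reporter in RNA-MaP buffer (100 mM Tris pH 7.5, 80 mM KCl, 4 mM MgCl2), without ligand or with the indicated ligand. Median apparent KD per design.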

[1] = input ligand: theophylline 20 uM
[2] = input ligand: tryptophan 2.4 mM
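Further: bound reporter read as fluorescence of individual clusters on recovered sequencing chips by microscopy, with normalized cluster intensities fitted with a binding model.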

Sequence	apparent KD of K4 kissing-loop reporter (input ligand: FMN 200 uM)	apparent KD of K4 kissing-loop reporter (input ligand: arginine 13.2 mM)	apparent KD of K4 kissing-loop reporter (input ligand: none)	apparent KD of K4 kissing-loop reporter [1]	apparent KD of K4 kissing-loop reporter [2]
AAGCAGUCUCUUGUAGUCAUCGAAGAUGAACGAGGACCGGUACGGCCGCCACUCGGAGUGAUGUUCCGAAGGCUGCAAAAUAAAA [MatMod 18 - Jieux - Exclusion - Tryptophan A]	300 nM	297 nM	309 nM	404 nM	324 nM
AAGGCCACGAGAAGGAGCGUGCUGUGGAGUGAUGUUCCAUUGUAGACCUAAGGUCUACGAGCACAGGUAGGUCGCUCGUGGUCAA [Omei KL Arginine B SS A v4]	113 nM	97.4 nM	95.3 nM	102 nM	99.6 nM
AAGGUCACUACUACAGUGAUGUUGUGGGAGCAGGAUAUGCAGAAAUGCAGAAGGGCUCGCUCCAGGUGACCGAAUGAAACAUUCA [whbob_SS_FMNA__2th174]	1500 nM	882 nM	1780 nM	1140 nM	1140 nM
AAGUGAUGUUGUAGUGAUGUUGUGAUGUUGCAGGAUAUAUAGUGAUGUAGAAGGGUAUGUACAGAUUUUUUUUUUGAGUGAUGUU [ffdcmullin]	112 nM	45.5 nM	73.8 nM	59 nM	81.4 nM
AAGUGUCAUUAGACACACGCAUCUAUAAACUAGGAUAUGCUGAUAAGCAGAAGGAGUGAUGUUCCUUUCAUGAUGCGAAUUAAAU [#07 K4 FMN A Exclusion]	224 nM	123 nM	113 nM	135 nM	111 nM
AAGUGUGUGGCGGCCGCCACUAGAAUCCAGUGAUGUUGGAGAUAUCACGUAAGUGAUAUCCAUCAUAGGACCGGGCCAUAUAGAA [Same State - Tryptophan B (Freestyle 18)]	675 nM	389 nM	945 nM	1280 nM	755 nM
AAGUGUGUGGCGGCCGCCACUAGAAUCCAGUGAUGUUGGAGUAAUCAAAUAAAUAAUAAUAAACAUAGGACCGGGCCAUAUAGAA [Same State - Tryptophan B (Freestyle 2)]	154 nM	138 nM	147 nM	134 nM	129 nM
AAGUGUGUGGCGGCCGCCACUAGAAUCCAGUGAUGUUGGAGUUAUCAUAUAAAUGAUAAUCAACAUAGGACCGGGCCAUAUAGAA [Same State - Tryptophan B (Freestyle 7)]	639 nM	523 nM	550 nM	745 nM	783 nM
AAUAAAAUCACGGCCGCCACUGAUACUAAUAUUAGCAGUGAUGUUGCUAUGUAUAAUUUAUUAAACAGGACCGGGUGAAUAUUUA [JR_ExcTryptoB_Sub015]	159 nM	129 nM	126 nM	150 nM	114 nM
AAUAACUUGCAGUGAUGUUGCAAGAAAUCUCAGGAUAUCAGGAAACUGAGAAGGGAGUAUCCUGAGUAAACAUCACAUCUUAGGA [KL-SSFMN-A8]	322 nM	364 nM	399 nM	376 nM	369 nM
AAUAAUAAUAAAUAAAGAUUGAUGAGCAAACGAGGACCGGUACGGCCGCCACUCGAGUGAUGUUCGAGAAGCUCAUCAAUCAUAA [AK4.8 Exc Tryptophan A]	147 nM	134 nM	138 nM	112 nM	337 nM
AAUAAUCUAGGUGAUACCAGCUCAACAUGAGUGAUGUUCAUGAAAUAAUGUAGAGUUGAGAGCCCUUGGCAGCACCUAGAUAAUA [KL-SSTheoB5]	264 nM	222 nM	239 nM	178 nM	240 nM
AAUACGCCGAAAGGAUAUAUAGAACAUCAAGGGCGCUGACUUUGCUAAAUCACAAGUGAUGUUUGUAUAGAAGGUUCGCAGUCAA [theeternabot_exclusion_KL_FMN_B_30]	245 nM	427 nM	500 nM	452 nM	437 nM
AAUGAUGAUUGACACAUUUACUAAAAGGAAGGAGCGGCGAAGUAGCCAGGUAGGUCGCCUUAUAGCAGUGAUGUUGCUAUUUGUU [JR_Nu_ExcArginiA_Sub027]	59 nM	106 nM	83.1 nM	105 nM	76.2 nM
AAUGUACAAGUGAUGUUUGUACUUUCCGAAGGAGCGUCUAAUAAGACAGGUAGGUCGCGGAUUCUCUUAAUUAUCAGGUCAUUAA [JR_ExcArginiA_Sub017]	89.6 nM	81.3 nM	86.2 nM	80.6 nM	81.6 nM
AAUGUACAGGGAAGGAGCGUCGUCCAGUGAUGUUGGAGUUAAAUACCAGUGAUGUUGGUUAGGCAGGUAGGUCGCCCUAAAGUAG [#09 K4 Arginine B Exclusion]	102 nM	71.4 nM	80.1 nM	86.5 nM	82.1 nM
